B1: Hammerhead Ribozyme (parent)
chain: ACCGGAUGUGCUUUCCGGUCUGAUGAGUCCGUGAGGACGAAACAG

Variants of: B1
Experiment: self-cleavage, relative activity (ratio to wild type); higher = more cleavage; co-transcriptional
G18U G33A showed a self-cleavage of 0.948.
Variant U19C C43G has a self-cleavage of 0.393.
Work on U7C A34U yielded a self-cleavage of 0.995.
With C2U G25U the self-cleavage was 0.28.
C2A U32C showed a self-cleavage of 0.632.
Variant C2A A40C has a self-cleavage of 0.353.
Variant C3G U32G has a self-cleavage of 0.36.
A23G C38U showed a self-cleavage of 0.394.
C2G C3A showed a self-cleavage of 0.283.
U12C G45U gave a self-cleavage of 0.564.
In the case of A26U A34C, the self-cleavage is reported as 0.355.
In the case of G8A A41U, the self-cleavage is reported as 0.323.
G33U G36U showed a self-cleavage of 0.618.
C16A U19A showed a self-cleavage of 0.34.
For C20U U28C, the self-cleavage was 0.661.
Variant U14C C16A has a self-cleavage of 0.931.
In the case of U19A G33A, the self-cleavage is reported as 0.356.
Work on G27A G31C yielded a self-cleavage of 0.864.
Variant U19G A23U has a self-cleavage of 0.23.
With A41U C43G the self-cleavage was 0.332.
C20U C30G showed a self-cleavage of 0.398.
In the case of U28G A37U, the self-cleavage is reported as 0.843.
Work on C3G A42U yielded a self-cleavage of 0.23.
For G4U C30G, the self-cleavage was 0.305.
C2G G45A gave a self-cleavage of 0.349.
C2U G36C showed a self-cleavage of 0.371.
C15G A44U gave a self-cleavage of 0.408.
With U21C G22U the self-cleavage was 0.277.
In the case of A1C C15U, the self-cleavage is reported as 0.408.
For U12G G35C, the self-cleavage was 0.444.
U19C G36C showed a self-cleavage of 0.427.
For G22A C43G, the self-cleavage was 0.288.
G22A C43A gave a self-cleavage of 0.411.
Work on A23U G33A yielded a self-cleavage of 0.524.
Variant G22U A34C has a self-cleavage of 0.267.
In the case of U13A C29U, the self-cleavage is reported as 0.941.
In the case of G8A G25U, the self-cleavage is reported as 0.353.
For C11A A26C, the self-cleavage was 0.725.
G4A G17U showed a self-cleavage of 0.39.
For C2U G8A, the self-cleavage was 0.998.
For C11U G45U, the self-cleavage was 0.497.
Work on G4C G45C yielded a self-cleavage of 0.4.
With C3G G8A the self-cleavage was 0.406.
With G10A C20A the self-cleavage was 0.451.
A44G G45C showed a self-cleavage of 2.15.
G10A C29A gave a self-cleavage of 0.654.
G8A C16U showed a self-cleavage of 1.13.
For U13C G45U, the self-cleavage was 0.965.
In the case of G33C C43U, the self-cleavage is reported as 0.308.
Work on G25C G35U yielded a self-cleavage of 0.357.
In the case of G27A G35A, the self-cleavage is reported as 0.505.
G10A G39U gave a self-cleavage of 0.401.
For U7C C29A, the self-cleavage was 0.685.
Work on C16A A37C yielded a self-cleavage of 0.898.
For G5A G8A, the self-cleavage was 1.24.
C2U G31A showed a self-cleavage of 1.11.
For U13C G25A, the self-cleavage was 0.395.
Work on G18U A37U yielded a self-cleavage of 0.494.
Work on U32G G45C yielded a self-cleavage of 0.712.
Work on C20A A44G yielded a self-cleavage of 0.848.
Work on G5U G18A yielded a self-cleavage of 0.334.
In the case of G10A C43G, the self-cleavage is reported as 0.406.
For U14A A26G, the self-cleavage was 0.343.
For U12C A41C, the self-cleavage was 0.299.
G25C G31C showed a self-cleavage of 0.339.
With G5A A26G the self-cleavage was 0.398.
Variant A26C G31A has a self-cleavage of 0.687.
For U9A A41C, the self-cleavage was 0.455.
Variant C2G U9C has a self-cleavage of 0.357.
With A23C G39C the self-cleavage was 0.357.
Variant C3A U7A has a self-cleavage of 0.687.
With C3G C43U the self-cleavage was 0.272.
G4C C30G showed a self-cleavage of 0.371.
Work on A23G U24A yielded a self-cleavage of 0.645.
Variant U9A C15U has a self-cleavage of 0.848.
Work on C2G G22A yielded a self-cleavage of 0.292.
For A1U A44G, the self-cleavage was 0.971.
G4A A42C gave a self-cleavage of 0.335.
Variant A6U G27C has a self-cleavage of 0.552.
Work on G35U A44U yielded a self-cleavage of 0.338.
For C2G A42G, the self-cleavage was 0.273.
With G4U U24C the self-cleavage was 0.549.
Variant A1U C2G has a self-cleavage of 1.92.
Work on A6G C16G yielded a self-cleavage of 0.537.
G17C A42G gave a self-cleavage of 0.335.
U32C A41C showed a self-cleavage of 0.294.
Variant U21G U28C has a self-cleavage of 0.381.
Work on U13C G17A yielded a self-cleavage of 0.809.
Work on G5U U24G yielded a self-cleavage of 0.636.
For U7C C43U, the self-cleavage was 0.25.
In the case of U9G G10U, the self-cleavage is reported as 1.05.
With C16G G35C the self-cleavage was 0.44.
With U32G A44G the self-cleavage was 0.898.
With U12G A40G the self-cleavage was 0.326.
For C3A U13A, the self-cleavage was 1.33.
U7A C38U gave a self-cleavage of 1.27.
Variant G39C G45A has a self-cleavage of 0.359.
In the case of C43U G45C, the self-cleavage is reported as 0.451.
With A26G G35C the self-cleavage was 0.35.
G4U C43A gave a self-cleavage of 0.272.
With G25C U28G the self-cleavage was 0.311.
Work on A34U G36A yielded a self-cleavage of 0.437.
G18U U32G showed a self-cleavage of 0.802.
For G31U A37C, the self-cleavage was 1.25.
A42C G45U gave a self-cleavage of 0.421.
C30U G35A showed a self-cleavage of 1.02.
Work on G22A G36U yielded a self-cleavage of 0.344.
With C20U U21G the self-cleavage was 0.362.
With A6C A40U the self-cleavage was 0.37.
U7G A40G showed a self-cleavage of 0.291.
For G10U C43U, the self-cleavage was 0.537.
G18A A34U showed a self-cleavage of 0.515.
With A34U G39C the self-cleavage was 0.351.
C16A G31U gave a self-cleavage of 1.29.
For C16A G31A, the self-cleavage was 1.22.
A6G G22A gave a self-cleavage of 0.239.
Work on G22U C29U yielded a self-cleavage of 0.251.
Work on U14G G35U yielded a self-cleavage of 0.611.
Variant A6C C20A has a self-cleavage of 0.291.
Work on G10C A44G yielded a self-cleavage of 1.44.
For C29G C38A, the self-cleavage was 0.458.
C20A C29A showed a self-cleavage of 0.382.
For U21G U24G, the self-cleavage was 0.536.
For U19C C20U, the self-cleavage was 0.321.
C3A U19A gave a self-cleavage of 0.316.
A37G G45C showed a self-cleavage of 0.416.
Work on C38U A42U yielded a self-cleavage of 0.317.
U19G A44U showed a self-cleavage of 0.286.
Work on A6C C30A yielded a self-cleavage of 0.588.
In the case of U7A A37G, the self-cleavage is reported as 0.907.
Variant A26C A40U has a self-cleavage of 0.352.
Work on U14G A23G yielded a self-cleavage of 0.248.
Work on G4U A44C yielded a self-cleavage of 0.401.
With C16U C38G the self-cleavage was 0.717.
In the case of C15U C38A, the self-cleavage is reported as 0.677.
For U7G G33U, the self-cleavage was 1.32.
U9A U13A showed a self-cleavage of 1.62.
For U14G C30G, the self-cleavage was 0.721.
With G5A C30U the self-cleavage was 1.43.
With G5A C30G the self-cleavage was 0.597.
Variant C15U G22C has a self-cleavage of 0.288.
For C30G A34G, the self-cleavage was 0.409.
Work on U9A A37G yielded a self-cleavage of 1.
With A1G G31A the self-cleavage was 1.79.
U7C G27U showed a self-cleavage of 0.412.
U13A A26G gave a self-cleavage of 0.327.
With U13G C30U the self-cleavage was 0.786.
For A23C A34G, the self-cleavage was 0.342.
For G18A G27A, the self-cleavage was 0.519.
For G10C C11U, the self-cleavage was 1.18.
U7A C29U showed a self-cleavage of 0.823.
C29U A44U showed a self-cleavage of 0.542.
With U9C C38U the self-cleavage was 1.1.
With G10C A41G the self-cleavage was 0.392.
C29G A44C gave a self-cleavage of 0.35.
Variant G31U G45A has a self-cleavage of 0.95.
C29U A41G gave a self-cleavage of 0.275.
A34U A44U gave a self-cleavage of 0.437.
U32C G36C showed a self-cleavage of 0.553.
In the case of C16U U21A, the self-cleavage is reported as 0.698.
G8C G39C showed a self-cleavage of 0.407.
G8U U9C showed a self-cleavage of 1.
Variant G17C G33U has a self-cleavage of 0.623.
Variant G36A A37C has a self-cleavage of 0.414.
G5U A37U gave a self-cleavage of 0.417.
For A26G G33C, the self-cleavage was 0.409.
Variant G27C A41C has a self-cleavage of 0.339.
